Test results from the RNAGym collection of RNA variant scans (doi:10.7554/elife.80360).

B1: HDV Ribozyme (parent)
chain: GGCCGGCAUGGUCCCAGCCUCCUCGCUGGCGCCGGCUGGGCAACAUUCCGAGGGGACCGUCCCCUCGGUAAUGGCGAAUGGGACCCA

Variants of: B1
Assay: self-cleavage, relative activity (ratio to wild type); higher = more cleavage; co-transcriptional

Variant | self-cleavage
GGCCGGCAUGGUCCCAGCGUCCUCGCUGGCGCCGGCUGGGCGACAUUCCGAGGGGACCGUCCCCUCGGUAAUGGCGAAUGGGACCCA [C19G A42G] | 0
GGCCGGCAUGGUCCCAGCAUCCUCGCUGGCGCCGGCUGGGCAACAUUCCGAGGGGACCGUCCCCUCUGUAAUGGCGAAUGGGACCCA [C19A G67U] | 0.281
GGCCGGCAUGGUCCCAGCAUCCUCGCUGGCGCCGGCUGGGCAACAUUCCGAGGGGACCGUCCCCUCAGUAAUGGCGAAUGGGACCCA [C19A G67A] | 0.0941
GGCCGGCAUGGUCCCAGCGUCCUCGCUGGCGCCGGCUGGUCAACAUUCCGAGGGGACCGUCCCCUCGGUAAUGGCGAAUGGGACCCA [C19G G40U] | 0.0997
GGCCGGCAUGGUCCCAGCAUCCUCGCUGGCGCCCGCUGGGCAACAUUCCGAGGGGACCGUCCCCUCGGUAAUGGCGAAUGGGACCCA [C19A G34C] | 0.0739
GGCCGGCAUGGUCCCAGCGUCCUCGCUGGCGCCGGCUGGGCAACAUUCCGAGGGGACCGUCCCCUCGGUAAUGGCGAAUGGGAUCCA [C19G C84U] | 0.0504
GGCCGGCAUGGUCCCAGCGUCCUCGCUGGCACCGGCUGGGCAACAUUCCGAGGGGACCGUCCCCUCGGUAAUGGCGAAUGGGACCCA [C19G G31A] | 0.0554
GGCCGGCAUGGUCCCAGCGUCCUCGCUGGCGCCGGCUGGGCAACAUUCCGAGGGGACCGUCCCCUCGGUAAUGGCGAAUGGGACGCA [C19G C85G] | 0.111
GGCCGGCAUGGUCCCAGCGUCCUCGCUGGCGCCGGCUGGGCAACAUUCCGAGGGGACGGUCCCCUCGGUAAUGGCGAAUGGGACCCA [C19G C58G] | 0.0739
GGCCGGCAUGGUCCCAGCAUCCUCGCUGGCGCCGGCUGGGCAACAUUCCGAGGGGACCUUCCCCUCGGUAAUGGCGAAUGGGACCCA [C19A G59U] | 0.134
GGCCGGCAUGGUCCCAGCGUCCUCGCUGGCGCCGGCUGGGCAACAUUCCGAGGGGACCGUCCCCUCGGUAAUGGCGAAUGGGCCCCA [C19G A83C] | 0
GGCCGGCAUGGUCCCAGCGUCCUCGCUGGCGCCGGCUGGGCAACAUUCCGAGGGGACCGUCCCCUCGGUAAUCGCGAAUGGGACCCA [C19G G73C] | 0.0244
GGCCGGCAUGGUCCCAGCGUCCUCGCUGGCGCCGGCUGGGCAAAAUUCCGAGGGGACCGUCCCCUCGGUAAUGGCGAAUGGGACCCA [C19G C44A] | 0
GGCCGGCAUGGUCCCAGCGUCCUCGCUGGCGCCGGCUGGGCAAUAUUCCGAGGGGACCGUCCCCUCGGUAAUGGCGAAUGGGACCCA [C19G C44U] | 0.0563
GGCCGGCAUGGUCCCAGCGUCCUCGCUGGCGCCGGCUGGGCAAGAUUCCGAGGGGACCGUCCCCUCGGUAAUGGCGAAUGGGACCCA [C19G C44G] | 0.0959
GGCCGGCAUGGUCCCAGCGUCCUCGCUGGCGCCGGCUGGGCAACAUUCCGAGGGGACCGUCCCCUCGGUCAUGGCGAAUGGGACCCA [C19G A70C] | 0
GGCCGGCAUGGUCCCAGCGUCCUCGCUGGCGCCGGCUGGGCAACAUUCGGAGGGGACCGUCCCCUCGGUAAUGGCGAAUGGGACCCA [C19G C49G] | 0.0426
GGCCGGCAUGGUCCCAGCAUCCUCGCUGGCGCCGGCUGGGCAACAUUCCCAGGGGACCGUCCCCUCGGUAAUGGCGAAUGGGACCCA [C19A G50C] | 0.0923
GGCCGGCAUGGUCCCAGCGUCCUCGCUGGCGCCGGCUGGGCAACAUUCCGAGGGGACCGUACCCUCGGUAAUGGCGAAUGGGACCCA [C19G C61A] | 0.106
GGCCGGCAUGGUCCCAGCGUCCUCGCUGGCGCCGGCUGGGCAACAUUCCGAGGGGACCGUCGCCUCGGUAAUGGCGAAUGGGACCCA [C19G C62G] | 0.0791
GGCCGGCAUGGUCCCAGCAUCCUCGCUGGCGCCGGCUGGGCAACAUUCCGAGGGGACCGUCCCCACGGUAAUGGCGAAUGGGACCCA [C19A U65A] | 0.273
GGCCGGCAUGGUCCCAGCAUCCUCGCUGGCGCCGGCUGGGCAACAUUCCGAGGGGACCGUCCCCGCGGUAAUGGCGAAUGGGACCCA [C19A U65G] | 0.189

Variant | self-cleavage
GGCCGGCAUGGUCCCAGCAUCCUCGCUGGCGCCGGCUGGGCAACAUUCCGAGGGGACCGUCCCCCCGGUAAUGGCGAAUGGGACCCA [C19A U65C] | 0.155
GGCCGGCAUGGUCCCAGCGUCCUCGCUGGCGCCGGCUGGGCAACAUUCCGAGGGGACCGUCCCCUCGGUAAUGGAGAAUGGGACCCA [C19G C75A] | 0.0773
GGCCGGCAUGGUCCCAGCAUCCUCGCUGGCGCCGGCUGGACAACAUUCCGAGGGGACCGUCCCCUCGGUAAUGGCGAAUGGGACCCA [C19A G40A] | 0.109
GGCCGGCAUGGUCCCAGCAUCCUCGCUGGCGCCGGCUGGGCAACAUUCCGAGGGGACCGUCCCCUCGGUAAUGGCAAAUGGGACCCA [C19A G76A] | 0.185
GGCCGGCAUGGUCCCAGCAUCCUCGCUGGCGCCGGCUGGGCAACAUUCCGAGGUGACCGUCCCCUCGGUAAUGGCGAAUGGGACCCA [C19A G54U] | 0.201
GGCCGGCAUGGUCCCAGCAUCCUCGCUGGCGCCGGCUGGGCAACAUUCCGAGGCGACCGUCCCCUCGGUAAUGGCGAAUGGGACCCA [C19A G54C] | 0.0817
GGCCGGCAUGGUCCCAGCAUCCUCGCUGGCGCCGGCUGGGCAACAUUCCGAGGGGACCGUCCCCUCGGUAAUGGCGAAUGUGACCCA [C19A G81U] | 0.133
GGCCGGCAUGGUCCCAGCAUCCUCGCUGGCGCCGGCUGGGCAACAUUCCGAGAGGACCGUCCCCUCGGUAAUGGCGAAUGGGACCCA [C19A G53A] | 0.149
GGCCGGCAUGGUCCCAGCAUCCUCGCUGGCGCCGGCUGGGCAACAUUCCGAGUGGACCGUCCCCUCGGUAAUGGCGAAUGGGACCCA [C19A G53U] | 0.157
GGCCGGCAUGGUCCCAGCGUCCUCGCUGGCGCCGGUUGGGCAACAUUCCGAGGGGACCGUCCCCUCGGUAAUGGCGAAUGGGACCCA [C19G C36U] | 0.0767
GGCCGGCAUGGUCCCAGCAUCCUCGCUGGCGCCGGCUGGGCAACAUUCCGAGGGGACCGUCCCCUCGGCAAUGGCGAAUGGGACCCA [C19A U69C] | 0.146
GGCCGGCAUGGUCCCAGCGUCCUCGCUGGCGCCGGCUGGGCAACAUUCCGAGGGGACCGUCCCCUCGCUAAUGGCGAAUGGGACCCA [C19G G68C] | 0.0875
GGCCGGCAUGGUCCCAGCGUCCUCGCUGGCGCCGGCUGGGCAACGUUCCGAGGGGACCGUCCCCUCGGUAAUGGCGAAUGGGACCCA [C19G A45G] | 0.106
GGCCGGCAUGGUCCCAGCAUCCUCGCUGGCGCCGGCUGGGCAACAAUCCGAGGGGACCGUCCCCUCGGUAAUGGCGAAUGGGACCCA [C19A U46A] | 0.0707
GGCCGGCAUGGUCCCAGCGUCCUCGCUGGCGCCGGCUGGGCAACAUUCCGAGGGGACCGUCCCAUCGGUAAUGGCGAAUGGGACCCA [C19G C64A] | 0.0528
GGCCGGCAUGGUCCCAGCGUCCUCGCUGGCGCCGGCUGGGCAACAUUCCGAGGGGACCGUCCCCUCGGUAAUGGCGACUGGGACCCA [C19G A78C] | 0.119
GGCCGGCAUGGUCCCAGCAUCCUCGCUGGCGCCGGCUGGGCAACAUUCCGAGGGGACCGUCCCCUCGGUAAUGGCGAAUCGGACCCA [C19A G80C] | 0.0665
GGCCGGCAUGGUCCCAGCAUCCUCGCUGGCGCCGGCUGGGCAACAUUCCGAGGGUACCGUCCCCUCGGUAAUGGCGAAUGGGACCCA [C19A G55U] | 0.0923
GGCCGGCAUGGUCCCAGCAUCCUCGCUGGCGCCGGCUGGGCAACAUUCCGAGGGCACCGUCCCCUCGGUAAUGGCGAAUGGGACCCA [C19A G55C] | 0.0489
GGCCGGCAUGGUCCCAGCGUCCUCGCUGGCGCCGGCUGGGCAACAUUACGAGGGGACCGUCCCCUCGGUAAUGGCGAAUGGGACCCA [C19G C48A] | 0.115
GGCCGGCAUGGUCCCAGCGUCCUCGCUGGCGCCGGCUGGGCAACAUUUCGAGGGGACCGUCCCCUCGGUAAUGGCGAAUGGGACCCA [C19G C48U] | 0.0733
GGCCGGCAUGGUCCCAGCGUCCUCGCUGGCGGCGGCUGGGCAACAUUCCGAGGGGACCGUCCCCUCGGUAAUGGCGAAUGGGACCCA [C19G C32G] | 0.0462

Variant | self-cleavage
GGCCGGCAUGGUCCCAGCAUCCUCGCUGGCGCCGGCUGGGCAACAUUCCGAGGGGACCGUCCCCUCGGUAAAGGCGAAUGGGACCCA [C19A U72A] | 0.0504
GGCCGGCAUGGUCCCAGCAUCCUCGCUGGCGCCGGCUGGGCAACAUUCCGAUGGGACCGUCCCCUCGGUAAUGGCGAAUGGGACCCA [C19A G52U] | 0.149
GGCCGGCAUGGUCCCAGCGUCCUCGCUGGCGCCGGCUUGGCAACAUUCCGAGGGGACCGUCCCCUCGGUAAUGGCGAAUGGGACCCA [C19G G38U] | 0.0852
GGCCGGCAUGGUCCCAGCGUCCUCGCUGGCGCCGGCUCGGCAACAUUCCGAGGGGACCGUCCCCUCGGUAAUGGCGAAUGGGACCCA [C19G G38C] | 0.0639
GGCCGGCAUGGUCCCAGCGUCCUCGCUGGCGCCGGCUGGGCAACAUUCCGAGGGCACCGUCCCCUCGGUAAUGGCGAAUGGGACCCA [C19G G55C] | 0.0475
GGCCGGCAUGGUCCCAGCGUCCUCGCUGGCGCCGGCUGGGCAACAUUCCGAGGGAACCGUCCCCUCGGUAAUGGCGAAUGGGACCCA [C19G G55A] | 0.0346
GGCCGGCAUGGUCCCAGCGUCCUCGCUGGGGCCGGCUGGGCAACAUUCCGAGGGGACCGUCCCCUCGGUAAUGGCGAAUGGGACCCA [C19G C30G] | 0.0739
GGCCGGCAUGGUCCCAGCGUCCUCGCUGGAGCCGGCUGGGCAACAUUCCGAGGGGACCGUCCCCUCGGUAAUGGCGAAUGGGACCCA [C19G C30A] | 0.0225
GGCCGGCAUGGUCCCAGCGUCCUCGCUGGCGCCGGCUGGGGAACAUUCCGAGGGGACCGUCCCCUCGGUAAUGGCGAAUGGGACCCA [C19G C41G] | 0.0573
GGCCGGCAUGGUCCCAGCAACCUCGCUGGCGCCGGCUGGGCAACAUUCCGAGGGGACCGUCCCCUCGGUAAUGGCGAAUGGGACCCA [C19A U20A] | 0.0234
GGCCGGCAUGGUCCCAGCGUCCUCGCUGGCGCCAGCUGGGCAACAUUCCGAGGGGACCGUCCCCUCGGUAAUGGCGAAUGGGACCCA [C19G G34A] | 0.248
GGCCGGCAUGGUCCCAGCGUCCUCGCUGGCGCCCGCUGGGCAACAUUCCGAGGGGACCGUCCCCUCGGUAAUGGCGAAUGGGACCCA [C19G G34C] | 0.0978
GGCCGGCAUGGUCCCAGCAUCCUCGCUGGCGCCGGCUCGGCAACAUUCCGAGGGGACCGUCCCCUCGGUAAUGGCGAAUGGGACCCA [C19A G38C] | 0.0248
GGCCGGCAUGGUCCCAGCGUCCUCGCUUGCGCCGGCUGGGCAACAUUCCGAGGGGACCGUCCCCUCGGUAAUGGCGAAUGGGACCCA [C19G G28U] | 0.208
GGCCGGCAUGGUCCCAGCGUCCUCUCUGGCGCCGGCUGGGCAACAUUCCGAGGGGACCGUCCCCUCGGUAAUGGCGAAUGGGACCCA [C19G G25U] | 0.0923
GGCCGGCAUGGUCCCAGCGUCCUCGCUGGCGCCGGCUGGGCAACAUUCCGAGGGGACCGUCCCCUCGGUAAUGGCGAAUGGGACCAA [C19G C86A] | 0
GGCCGGCAUGGUCCCAGCGUCCUCGCUGGCGCCGGCUGGGCAACAUUCCGAGGGGACCGUCCCCUCGGUAAUGGCGAAUGGGACCGA [C19G C86G] | 0.104
GGCCGGCAUGGUCCCAGCAUCCUCGCUGGCGCCGACUGGGCAACAUUCCGAGGGGACCGUCCCCUCGGUAAUGGCGAAUGGGACCCA [C19A G35A] | 0.111
GGCCGGCAUGGUCCCAGCAUCCUCGCUGGCGCCGUCUGGGCAACAUUCCGAGGGGACCGUCCCCUCGGUAAUGGCGAAUGGGACCCA [C19A G35U] | 0.115
GGCCGGCAUGGUCCCAGCGUCCUCGCUGGCGCCGGCUGGGCAACAUUCCGAGGGGCCCGUCCCCUCGGUAAUGGCGAAUGGGACCCA [C19G A56C] | 0.0489
